{"source": "paper PMC2660348", "key": {"[1]": {"target": "T1, Zur (FurB) (Mycobacterium smegmatis) (UniProt A0R0S1)", "T1 sequence": "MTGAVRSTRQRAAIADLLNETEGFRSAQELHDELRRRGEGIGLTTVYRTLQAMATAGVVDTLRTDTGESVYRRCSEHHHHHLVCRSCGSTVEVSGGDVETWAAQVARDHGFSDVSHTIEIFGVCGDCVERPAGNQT", "assay": "EMSA"}, "[2]": {"target": "T2, IdeR (Mycobacterium smegmatis) (UniProt A0QVZ3)", "T2 sequence": "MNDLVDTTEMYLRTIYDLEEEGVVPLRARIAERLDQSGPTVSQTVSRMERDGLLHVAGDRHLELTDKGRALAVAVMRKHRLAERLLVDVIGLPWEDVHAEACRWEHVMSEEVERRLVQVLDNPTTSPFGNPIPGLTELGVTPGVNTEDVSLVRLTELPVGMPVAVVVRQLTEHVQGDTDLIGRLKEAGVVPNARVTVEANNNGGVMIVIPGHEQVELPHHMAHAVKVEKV", "assay": "EMSA"}}, "data": [{"sequence": "CGGGATCCCGCAACACCCTGGTCAGTGCCGCCCGCGTCTGACGGCGCACCGTTCGCGCTGCCGGCACCCCGGGCTCCATAATGAAAATCATGTTCAGTAAGCTACACTCTGCATATCGGGCTACCAACGAAATGGAGTATCGGTCATGATCTTGCCAGCCGTGCCTAAAAGCTTGGCCGCAGGGCCGAGTCGATTGGTCGCGGTCGCCTCGACAGTTAGCTTATGCAATGCTAACTTCGGGGCAAAGTTCAGGCGGATCGGCCGATGGCGGGCGTAGGTGAAGGAGACAGCGGGTACCCG (double strand) [rv0282 upstream region (pr1)]", "values": [{"measurement": "binding", "setting": "[1]", "value": "binds"}, {"measurement": "binding", "setting": "[2]", "value": "binds"}]}]}
